Results on one molecule are retold here after patent publication US20080044436A1, “Method for Screening and Compositions for Treating Cancers” (priority 2004, published 2008).

The subject of this experiment is p27 promoter. Kind of experiment: Luciferase reporter assay in HeLa cells, p27 promoter. The class given is cell-based, human. Conditions: 0.3 μg TReP-132 expression vector, dose-dependent. As to the method:
The pGL2 and pGL3 reporter constructs (100 ng) were cotransfected with the indicated amounts of expression vectors and 10 ng of the control plasmid pRL.Null. The amount of plasmid was then normalized with the empty vector pcDNA3. After 12 hours of transfection, the medium was changed and cells were incubated for an additional 10 and 34 hours, respectively. During this period, T47-D cells were cultured in the presence and absence of progesterone (30 nM). The cells were then harvested and cell lysates (20 μl) were assayed for luciferase activity (Dual Luciférase™ Reporter Assay System, Promega, Madison, Wis., USA) in a Berthold LUMAT LB9501 luminometer. The transfections were performed in triplicate and each experiment was repeated at least three times.
TReP-132 activation of the p21, p27 and p16 cyclin kinase inhibitor promoters was studied by transfection of HeLa and T47-D cells. HeLa cells were seeded in 24-well plates at an initial density of 15,000 cells per well and transfected the next day with ExGen 500 (MBI Fermentas, Flamborough, Ontario, Canada) at a ratio of 4 μl of ExGen 500 per 0.5 μg DNA. T47-D cells were seeded at a density of 100,000 cells per well and transfected the next day with FuGENE 6 reagent (Roche Molecular Biochemicals, Laval, Canada), at a ratio of 3 μl of FuGENE per 1 μg of DNA. […]

B1: TReP-132: Transcriptional Regulating Protein of 132 kDa, polypeptide comprising SEQ ID NO: 2; here expressed in cells from vectors (protein)
chain: MGDQQLYKTNHVAHGSENLFYQQPPLGVHSGLNHNYGNAVTGGGMDAPQASPISPHFPQDTRDGLGLPVGSKNLGQMDTSRQGGWGSHAGPGNHVQLRGNLANSNMMWGAPAQAEPTDGYQYTYSQASEIRTQKLTSGVLHKLDSFTQVFANQNLRIQVNNMAQVLHTQSAVMDGAPDSALRQLLSQKPMEPPAPAIPSRYQQVPQQPHPGFTGGLSKPALQVGQHPTQGHLYYDYQQPLAQVPVQGGQPLQAPQMLSQHMQQMQQHQYYPPQQQQQAGQQRISMQEIQTQPQQIRPSQPQPPPQQQQPQQLQLQQRQGSMQIPQYYQPQPMMQHLQEQQQQQMHLQPPSYHRDPHQYTPEQAHTVQLIPLGSMSQYYYQEPQQPYSHPLYQQSHLSQHQQREDSQLKTYSSDRQAQAMLSSHGDLGPPDTGMGDPASSDLTRVSSTLPHRPLLSPSGIHLNNMGPQHQQLSPSAMWPQMHLPDGRAQPGSPESSGQPKGAFGEQFDAKNKLTCSICLKEFKNLPALNGHMRSHGGMRASPNLKQEEGEKVLPPQPQPPLPPPPPPPPPPQLPPEAESLTPMVMPVSVPVKLLPPKPSSQGFTNSTVAAPSARDKPASSMSDDEMPVLEIPRKHQPSVPKAEEPLKTVQEKKKFRHRPEPLFIPPPPSYNPNPAASYSGATLYQSQLRSPRVLGDHLLLDPTHELPPYTPPPMLSPVRQGSGLFSNVLISGHGPGAHPQLPLTPLTPTPRVLLCRSNSIDGSNVTVTPGPGEQTVDVEPRINIGLRFQAEIPELQDISALAQDTHKATLVWKPWPELENHDLQQRVENLLNLCCSSALPGGGTNSEFALHSLFEAKGDVMVALEMLLLRKPVRLKCHPLANYHYAGSDKWTSLERKLFNKALATYSKDFIFVQKMVKSKTVAQCVEYYYTWKKIMRLGRKHRTRLAEIIDDCVTSEEEEELEEEEEEDPEEDRKSTKEEESEVPKSPEPPPVPVLAPTEGPPLQALGQPSGSFICEMPNCGAVFSSRQALNGHARIHGGTNQVTKARGAIPSGKQKPGGTQSGYCSVKSSPSHSTTSGETDPTTIFPCKECGKVFFKIKSRNAHMKTHRQQEEQQRQKAQKAAFAAEMAATIERTTGPVGAPGLLPLDQLSLIKPIKDVDILDDDVVQQLGGVMEEAEVVDTDLLLDDQDSVLLQGDAEL
With B1, the p27 promoter induction entry is given as “approximately 7 fold”.
